Where two headings read alike, the source gives them in different places.

First the molecules themselves.
B1: acyl carrier protein (AcpP) found in MukB preparations (natural protein, E. coli, UniProt P0A6A8 1-78, looked up)
chain: MSTIEERVKKIIGEQLGVKQEEVTNNASFVEDLGADSLDTVELVMALEEEFDTEIPDEEAEKITTVQAAIDYINGHQA
B2: ParC subunit of topoisomerase IV (natural protein, E. coli, UniProt P0AFI2 1-752, looked up)
chain: MSDMAERLALHEFTENAYLNYSMYVIMDRALPFIGDGLKPVQRRIVYAMSELGLNASAKFKKSARTVGDVLGKYHPHGDSACYEAMVLMAQPFSYRYPLVDGQGNWGAPDDPKSFAAMRYTESRLSKYSELLLSELGQGTADWVPNFDGTLQEPKMLPARLPNILLNGTTGIAVGMATDIPPHNLREVAQAAIALIDQPKTTLDQLLDIVQGPDYPTEAEIITSRAEIRKIYENGRGSVRMRAVWKKEDGAVVISALPHQVSGARVLEQIAAQMRNKKLPMVDDLRDESDHENPTRLVIVPRSNRVDMDQVMNHLFATTDLEKSYRINLNMIGLDGRPAVKNLLEILSEWLVFRRDTVRRRLNYRLEKVLKRLHILEGLLVAFLNIDEVIEIIRNEDEPKPALMSRFGLTETQAEAILELKLRHLAKLEEMKIRGEQSELEKERDQLQGILASERKMNNLLKKELQADAQAYGDDRRSPLQEREEAKAMSEHDMLPSEPVTIVLSQMGWVRSAKGHDIDAPGLNYKAGDSFKAAVKGKSNQPVVFVDSTGRSYAIDPITLPSARGQGEPLTGKLTLPPGATVDHMLMESDDQKLLMASDAGYGFVCTFNDLVARNRAGKALITLPENAHVMPPVVIEDASDMLLAITQAGRMLMFPVSDLPQLSKGKGNKIINIPSAEAARGEDGLAQLYVLPPQSTLTIHVGKRKIKLRPEELQKVTGERGRRGTLMRGLQRIDRVEIDSPRRASSGDSEE
B3: MukB (wild type) (natural protein, E. coli, UniProt P22523 1-1486, looked up)
chain: MIERGKFRSLTLINWNGFFARTFDLDELVTTLSGGNGAGKSTTMAAFVTALIPDLTLLHFRNTTEAGATSGSRDKGLHGKLKAGVCYSMLDTINSRHQRVVVGVRLQQVAGRDRKVDIKPFAIQGLPMSVQPTQLVTETLNERQARVLPLNELKDKLEAMEGVQFKQFNSITDYHSLMFDLGIIARRLRSASDRSKFYRLIEASLYGGISSAITRSLRDYLLPENSGVRKAFQDMEAALRENRMTLEAIRVTQSDRDLFKHLISEATNYVAADYMRHANERRVHLDKALEFRRELHTSRQQLAAEQYKHVDMARELAEHNGAEGDLEADYQAASDHLNLVQTALRQQEKIERYEADLDELQIRLEEQNEVVAEAIERQQENEARAEAAELEVDELKSQLADYQQALDVQQTRAIQYNQAIAALNRAKELCHLPDLTADCAAEWLETFQAKELEATEKMLSLEQKMSMAQTAHSQFEQAYQLVVAINGPLARNEAWDVARELLREGVDQRHLAEQVQPLRMRLSELEQRLREQQEAERLLADFCKRQGKNFDIDELEALHQELEARIASLSDSVSNAREERMALRQEQEQLQSRIQSLMQRAPVWLAAQNSLNQLSEQCGEEFTSSQDVTEYLQQLLEREREAIVERDEVGARKNAVDEEIERLSQPGGSEDQRLNALAERFGGVLLSEIYDDVSLEDAPYFSALYGPSRHAIVVPDLSQVTEHLEGLTDCPEDLYLIEGDPQSFDDSVFSVDELEKAVVVKIADRQWRYSRFPEVPLFGRAARESRIESLHAEREVLSERFATLSFDVQKTQRLHQAFSRFIGSHLAVAFESDPEAEIRQLNSRRVELERALSNHENDNQQQRIQFEQAKEGVTALNRILPRLNLLADDSLADRVDEIRERLDEAQEAARFVQQFGNQLAKLEPIVSVLQSDPEQFEQLKEDYAYSQQMQRDARQQAFALTEVVQRRAHFSYSDSAEMLSGNSDLNEKLRERLEQAEAERTRAREALRGHAAQLSQYNQVLASLKSSYDTKKELLNDLQRELQDIGVRADSGAEERARIRRDELHAQLSNNRSRRNQLEKALTFCEAEMDNLTRKLRKLERDYFEMREQVVTAKAGWCAVMRMVKDNGVERRLHRRELAYLSADDLRSMSDKALGALRLAVADNEHLRDVLRMSEDPKRPERKIQFFVAVYQHLRERIRQDIIRTDDPVEAIEQMEIELSRLTEELTSREQKLAISSRSVANIIRKTIQREQNRIRMLNQGLQNVSFGQVNSVRLNVNVRETHAMLLDVLSEQHEQHQDLFNSNRLTFSEALAKLYQRLNPQIDMGQRTPQTIGEELLDYRNYLEMEVEVNRGSDGWLRAESGALSTGEAIGTGMSILVMVVQSWEDESRRLRGKDISPCRLLFLDEAARLDARSIATLFELCERLQMQLIIAAPENISPEKGTTYKLVRKVFQNTEHVHVVGLRGFAPQLPETLPGTDEAPSQAS
B4: MukF (wild type) (natural protein, E. coli, UniProt P60293 1-440, looked up)
chain: MSEFSQTVPELVAWARKNDFSISLPVDRLSFLLAVATLNGERLDGEMSEGELVDAFRHVSDAFEQTSETIGVRANNAINDMVRQRLLNRFTSEQAEGNAIYRLTPLGIGITDYYIRQREFSTLRLSMQLSIVAGELKRAADAAEEGGDEFHWHRNVYAPLKYSVAEIFDSIDLTQRLMDEQQQQVKDDIAQLLNKDWRAAISSCELLLSETSGTLRELQDTLEAAGDKLQANLLRIQDATMTHDDLHFVDRLVFDLQSKLDRIISWGQQSIDLWIGYDRHVHKFIRTAIDMDKNRVFAQRLRQSVQTYFDEPWALTYANADRLLDMRDEEMALRDEEVTGELPEDLEYEEFNEIREQLAAIIEEQLAVYKTRQVPLDLGLVVREYLSQYPRARHFDVARIVIDQAVRLGVAQADFTGLPAKWQPINDYGAKVQAHVIDKY

Data set [1] addresses B3. Put plainly: co-purification, SDS-PAGE with Coomassie staining.
Data set [2] addresses B3. Kind of data set: cross-linking.
The data set “cross-linking” concerns the molecule itself. Kind of data set: cross-linking.
Data set [3] deals with B3. Put plainly: cross-linking. This is another data set of the same source.

Turning to B1, the “stoichiometry N” value with MukB (wild type) [1] was 1 AcpP:MukB.

Consider B2, for which the binding result in the data set with MukB (wild type) [2] was “binds”.

Regarding B3, the binding result in the data set “cross-linking” is on record as “binds”.

Consider B4, for which the binding result in the data set with MukB (wild type) [3] was “binds”.
